Results: article PMC9596850, “Tonsillar Microbiome‐Derived Lantibiotics Induce Structural Changes of IL‐6 and IL‐21 Receptors and Modulate Host Immunity” (Advanced Science, 2022)

Legend:
Settings in all cases: both partners purified
[1] = target: T1, recombinant mouse IL-6 receptor subunit alpha protein with the Fc region of mouse IgG2a (mouse, UniProt P22272 20-364); experiment: SPR; Biacore 8K; receptor immobilised on CM5 chip by amine coupling, 25 °C, PBS-P running buffer; analytes with 5% DMSO injected serially; steady-state affinity model
T1 construct: also called Fc-IL-6Rα; IL-6Rα; source: bought: abcam
T1 sequence (looked up): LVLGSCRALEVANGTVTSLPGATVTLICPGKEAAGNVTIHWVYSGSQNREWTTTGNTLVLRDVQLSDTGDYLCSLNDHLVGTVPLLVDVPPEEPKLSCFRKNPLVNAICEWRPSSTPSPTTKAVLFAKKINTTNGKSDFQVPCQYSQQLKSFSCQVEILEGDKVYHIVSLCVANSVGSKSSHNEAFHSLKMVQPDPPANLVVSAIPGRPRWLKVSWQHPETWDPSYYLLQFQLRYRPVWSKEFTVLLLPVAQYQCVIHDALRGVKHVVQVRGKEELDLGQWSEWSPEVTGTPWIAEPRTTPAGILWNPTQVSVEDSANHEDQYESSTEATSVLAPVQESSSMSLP

[2] = target: T2, mouse IL-21 receptor protein with the Fc region of human IgG1 (mouse, UniProt Q9JHX3 20-237); experiment: as above
T2 construct: also called IL-21R-Fc; murine IL-21R; source: bought: Sino Biological

[3] = target: T3, murine IL-6 receptor subunit alpha (mouse, UniProt P22272 20-364); experiment: SPR; Biacore 8K; murine IL-6Rα or IL-21R (20 nM) immobilised on a CM5 chip by amine coupling, 25 °C, PBS-P running buffer; analytes with 5% DMSO injected serially (salivaricin B and mutants 12.5-800 µM; mIL-6 0.003125-0.1 µM; mIL-21 0.625-5 nM); KD of salivaricins from a steady-state affinity model
T3 construct: also called IL-6Rα; mIL-6R; source: bought: abcam
T3 sequence (looked up): T1 sequence (looked up)

[4] = target: T4, murine IL-21 receptor (mouse, UniProt Q9JHX3 20-237); experiment: as above
T4 construct: also called mIL-21R; Mouse IL-21R; source: bought: Sino Biological

[5] = target: T5, murine IL-6 receptor subunit alpha (mouse, UniProt P22272 20-364); experiment: SPR; Biacore 8K; receptor immobilised on a CM5 chip by amine coupling, 25 °C, PBS-P running buffer, analytes with 5% DMSO; steady state affinity model
T5 construct: also called mIL-6Rα; IL-6Rα; source: bought: abcam
T5 sequence (looked up): T1 sequence (looked up)

[6] = target: T5, murine IL-6 receptor subunit alpha; experiment: SPR; Biacore 8K; receptor immobilised on a CM5 chip by amine coupling, 25 °C, PBS-P running buffer, analyte with 5% DMSO; 1:1 binding model
[7] = target: murine IL-21 (mouse, UniProt Q9ES17 18-146); experiment: SPR; Biacore 8K; receptor immobilised on a CM5 chip by amine coupling, 25 °C, PBS-P running buffer, analytes with 5% DMSO; steady state affinity model

B1: salivaricin B (peptide)
peptide: GGGVIQTISHECRMNSWQFLFTCCS
notes: salivaricin B, lantibiotic peptide commonly synthesized by S. salivarius; Chemically synthesized; also called SalB; source: synthetic peptide (solid-phase, RoYo Biotech; HPLC, purity more than 96%)
Work on B1 yielded a Kd [1] of 160 µM and a Kd [2] of 10.1 µM.

B2: salivaricin B (peptide)
peptide: GGGVIQTISHECRMNSWQFLFTCCS
notes: salivaricin B, lantibiotic peptide commonly synthesized by Streptococcus salivarius; chemically synthesized; Molecular weight on the synthesis report is 2805.23; also called SalB; source: synthetic peptide (solid-phase synthesis, RoYo Biotech; HPLC purified, purity more than 96%)
Work on B2 yielded a Kd [3] of 354 µM and a Kd [4] of 12.6 µM.

B3: salivaricin A2 (peptide)
peptide: KRGTGWFATITDDCPNSVFVCC
notes: salivaricin A2, lantibiotic peptide commonly synthesized by Streptococcus salivarius; also called SalA2; source: synthetic peptide (solid-phase, RoYo Biotech), HPLC purified, purity more than 96%
With B3 the Kd [5] was 51.4 µM.

B4: murine IL-6 (ligand, mouse, UniProt P08505 25-211, looked up)
chain: FPTSQVRRGDFTEDTTPNRPVYTTSQVGGLITHVLWEIVEMRKELCNGNSDCMNNDDALAENNLKLPEIQRNDGCYQTGYNQEICLLKISSGLLEYHSYLEYMKNNLKDNKKDKARVLQRDTETLIHIFNQEVKDLHKIVLPTPISNALLTDKLESQKEWLRTKTIQFILKSLEEFLKVTLRSTRQT
notes: also called mIL-6
For B4, the Kd [6] was 0.0137 µM.

B5: murine IL-21 receptor (receptor)
chain: not shown
notes: also called mIL-21R; source: bought: Sino Biological
In the case of B5, the Kd [7] is reported as 0.0349 nM.
